Reference: paper PMC3500403

Key:
[1] = target: taxol stabilized microtubules (UniProt Q6B856); experiment: co-sedimentation
[2] = target: human Ska1 complex containing GFP-Ska1 (human) (UniProt Q96BD8); experiment: single-molecule TIRF microscopy, intensity distribution and photobleaching steps

Chain of human Ska1 complex containing GFP-Ska1 (Q96BD8 whole entry): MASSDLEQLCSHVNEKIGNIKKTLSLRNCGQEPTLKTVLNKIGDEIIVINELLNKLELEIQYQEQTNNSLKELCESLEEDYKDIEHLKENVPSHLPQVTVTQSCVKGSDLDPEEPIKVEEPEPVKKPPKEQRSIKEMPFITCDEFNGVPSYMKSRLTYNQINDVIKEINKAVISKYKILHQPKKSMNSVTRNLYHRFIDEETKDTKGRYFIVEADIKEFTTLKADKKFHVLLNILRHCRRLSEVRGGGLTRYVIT
Chain of human Ska1 complex containing GFP-Ska1 (Q8WVK7 whole entry): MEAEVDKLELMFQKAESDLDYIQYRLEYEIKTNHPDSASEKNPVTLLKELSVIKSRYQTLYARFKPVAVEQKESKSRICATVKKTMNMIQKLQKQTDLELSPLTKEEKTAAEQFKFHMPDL
Chain of human Ska1 complex containing GFP-Ska1 (Q8IX90 whole entry): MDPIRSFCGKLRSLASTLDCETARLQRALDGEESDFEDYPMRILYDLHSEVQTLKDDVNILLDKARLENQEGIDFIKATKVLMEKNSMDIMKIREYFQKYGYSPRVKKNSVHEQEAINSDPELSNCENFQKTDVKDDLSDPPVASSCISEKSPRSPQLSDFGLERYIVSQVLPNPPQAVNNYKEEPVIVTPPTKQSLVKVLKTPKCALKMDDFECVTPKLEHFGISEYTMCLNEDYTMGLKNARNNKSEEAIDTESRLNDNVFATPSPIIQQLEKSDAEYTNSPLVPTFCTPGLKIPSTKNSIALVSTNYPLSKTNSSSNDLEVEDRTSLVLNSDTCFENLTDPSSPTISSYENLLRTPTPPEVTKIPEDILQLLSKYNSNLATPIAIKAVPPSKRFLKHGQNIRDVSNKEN
Chain of human Ska1 complex (Q96BD8 whole entry): as the sequence (Q96BD8 whole entry) above
Chain of human Ska1 complex (Q8WVK7 whole entry): as the sequence (Q8WVK7 whole entry) above
Chain of human Ska1 complex (Q8IX90 whole entry): as the sequence (Q8IX90 whole entry) above

Kd [1] [µM]	stoichiometry N [2]	Substance
11.3	–	C. elegans Ska1 complex (from UniProt Q9XWS0 1-243)
2.4	–	human Ska1 complex (from UniProt Q96BD8 1-255; Q8WVK7 1-121; Q8IX90 1-412)
–	2	human Ska1 complex containing GFP-Ska1 (from UniProt Q96BD8 1-255; Q8WVK7 1-121; Q8IX90 1-412)
